This is an account of results in patent publication US10233249B2, “Antibodies and methods for treating estrogen receptor-associated diseases” (BEIJING SHENOGEN PHARMA GROUP LTD., priority 2013, dated 2019).

Entries after “also recorded” stand apart in the source; their conditions may differ.

The target in assay [1] is T1, stable 3T3 cell lines induced to express human ER-α36 protein (Homo sapiens, UniProt P03372, I452L).
T1 construct: expressed in transfected cells
T1 sequence (P03372 1-310 isoform P03372-4 I279L): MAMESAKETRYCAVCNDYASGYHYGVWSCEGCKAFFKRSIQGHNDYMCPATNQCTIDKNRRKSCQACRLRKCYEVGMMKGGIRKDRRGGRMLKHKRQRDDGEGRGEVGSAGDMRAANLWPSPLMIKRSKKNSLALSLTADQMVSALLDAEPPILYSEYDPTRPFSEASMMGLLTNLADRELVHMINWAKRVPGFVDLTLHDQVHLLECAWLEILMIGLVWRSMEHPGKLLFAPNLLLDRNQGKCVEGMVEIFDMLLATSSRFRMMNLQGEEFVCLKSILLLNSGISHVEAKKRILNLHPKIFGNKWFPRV
The assay is described as follows: FACS analysis of binding to inducible 3T3 cell lines. The settings on record: mouse IgG2b isotype control.

Assay [2] addresses T2, ER-α36 (Homo sapiens, UniProt P03372, I452L).
T2 construct: made in house; host or cells: E. coli BL21 (DE3)
T2 sequence (P03372 166-310 isoform P03372-4 I279L): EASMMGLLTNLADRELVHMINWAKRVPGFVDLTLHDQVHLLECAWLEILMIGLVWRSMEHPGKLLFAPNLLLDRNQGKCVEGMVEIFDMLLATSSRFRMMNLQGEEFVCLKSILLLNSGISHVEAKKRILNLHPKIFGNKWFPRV
Put plainly: ELISA binding specificity of SNGmB1. The settings on record: plate coated at 1 μg/ml, antibody 0.004-10 μg/ml. Here is the method: (§1) The binding specificity of SNGmB1 was assessed using ELISA assay. Five different proteins were used to coat the assay plate at 1 μg/ml. After extensive blocking, the SNGmB1 antibody of different concentrations (10, 2, 0.4, 0.08 and 0.016, 0.004 μg/ml) was added to the assay plate and incubated for 1.5 hours, followed by detection of complex formation using HRP (horse radish peroxidase) labeled anti-mouse IgG Fc (Invitrogen). An example of the data was shown below in FIG. 3. […] The key epitope residues in ER-α36 F domain for SNGmB1 binding have been mapped using both PepScan and Alanine Scan (see Example 5).
For orientation: An ELISA detects its analyte on a solid surface through an enzyme-linked reagent.

In assay [3] the target is T3, ER-α36 (Homo sapiens, UniProt P03372).
T3 sequence (P03372 284-310 isoform P03372-4): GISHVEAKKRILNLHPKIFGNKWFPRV
The assay is described as follows: ELISA binding specificity of SNGmB1. The settings on record: plate coated at 1 μg/ml, antibody 0.004-10 μg/ml. Set-up: made in house; host or cells: E. coli BL21 (DE3). The protocol:
as §1

Assay [4] deals with BCAP37 breast cancer xenograft. Put plainly: BCAP37 breast cancer xenograft model. The class given is in vivo. The following applies: NOD-SCID mice, 1.25, 5 and 20 mg/kg SNGmB1, 3 mg/kg Herceptin, 17 days. The protocol:
The ability of anti-ER-α36 antibody in inhibiting human tumor cell growth in Xenograft model was assessed using BCAP37 breast cancer model. […] The cells were implanted into NOD-SCID mice. […] After 17 days of treatment, the tumors were excised, and both tumor weight and volume were measured.

In assay [5] the test system is MCF7 mammosphere formation. The assay is described as follows: Estradiol stimulated MCF7 mammosphere formation assay. The class given is cell-based, human. The protocol: The impact of antibody on the formation and growth of cells was evaluated by Estradiol stimulated MCF7 mammosphere formation assay.
MCF-7 (ATCC) maintained in DMEM medium containing 10% FBS (Gibco) have been passaged 2-3 times prior to assay and are 60% confluence. MCF-7 cells were washed with warm phenol red-free DMEM twice and then grew in phenol red-free DMEM with 2.5% charcoal stripped FBS (CFBS) for 48 hours. The cells were then trypsinized and passed through 40-μm filters to remove cell clumps, followed by stained with 7-AAD and 800 cells were plated into each well of ultra-low binding 24 well plates (Corning Inc.) in 800 μl mammosphere growth medium consisting of serum free DMEM-F12 (Gibco) supplemented with 5 μg/ml insulin, 0.4% bovine serum albumin (Sigma), B27 (Invitrogen), 20 ng/ml EGF and bFGF (BDBiosciences). For the evaluation of antibody activity, 1 nM estradiol in DMSO was added to each well to induce mammosphere formation after adding of antibodies.
MCF7 cells were grown in the presence of 1 nM estradiol and PBS, human IgG, mouse IgG2b, recombinant ER-α36 ligand binding domain Fc fusion protein, or SNGmB1. DMSO was used as negative control. After 72 hr treatment, the number of mammosphere in culture was counted. […]
The antibody activity was also evaluated in a longer term of 7 days by following methods: MCF7 mammosphere was prepared using same method described above. […]

B1: SNGmB1: mouse monoclonal anti-ER-α36 antibody (mIgG2b), light chain SEQ ID NO: 16, heavy chain SEQ ID NO: 18 (antibody, listed as Mus musculus)
heavy: QAYLQQSGAELVRPGASVKMSCKASGYTFTSHNMHWIKQTPRQGLEWIGAIHPVNGDTAYNQKFKGKATLTVDKSSSTAYLQLSSLTSEESAVYFCAREGYGSVDYWGQGTTLTVSSAKTTPPSVYPLAPGCGDTTGSSVTLGCLVKGYFPESVTVTWNSGSLSSSVHTFPALLQSGLYTMSSSVTVPSSTWPSQTVTCSVAHPASSTTVDKKLEPSGPISTINPCPPCKECHKCPAPNLEGGPSVFIFPPNIKDVLMISLTPKVTCVVVDVSEDDPDVQISWFVNNVEVHTAQTQTHREDYNSTIRVVSTLPIQHQDWMSGKEFKCKVNNKDLPSPIERTISKIKGLVRAPQVYILPPPAEQLSRKDVSLTCLVVGFNPGDISVEWTSNGHTEENYKDTAPVLDSDGSYFIYSKLNMKTSKWEKTDSFSCNVRHEGLKNYYLKKTISRSPGK
light: ETTVTQSPASLSMTIGEKVTIRCITSTDIDDDMNWYRKKPGQPPKLLISEGNTLRPGVPSRFSSSGYGTDFVFTIENMLSEDVADYYCLQSDNLPLTFGAGTKLELKRADAAPTVSIFPPSSEQLTSGGASVVCFLNNFYPKDINVKWKIDGSERQNGVLNSWTDQDSKDSTYSMSSTLTLTKDEYERHNSYTCEATHKTSTSPIVKSFNRNEC
Consider B1, for which, in assay [1], the “binding to 3T3 cell line induced to express human ER-α36 (FACS)” value is listed as “specifically bound”. The “binding to Fc-LBD protein” value in assay [2] is listed as “bind to”. Moreover, the “binding to 27-amino acid peptide derived from the F domain of ER-α36 ("peptide")” value in assay [3] was “bind to”. In assay [4], the “inhibition of tumor growth” value is recorded as “inhibit tumor growth in a dose-dependent manner; also recorded: inhibited tumor cell growth in a does-dependent manner”. Also, the “inhibition of estradiol stimulated MCF7 mammosphere formation” value in assay [5] (1 nM estradiol, 72 hr treatment, compared with human IgG and mouse IgG2b) was “significantly inhibited; also recorded: can inhibit on MCF7 mammosphere formation and growth”. Also, the “inhibition of MCF7 mammosphere formation, longer term” value in assay [5] (7 days, estradiol 100 μM or 3 nM, different antibody concentrations, compared with mIgG) was “better ability in inhibiting mammosphere formation compared with mIgG; also recorded: can inhibit on MCF7 mammosphere formation and growth at different concentrations”.
